Experimental data: patent US20240342215A1 (Regeneron, published 2024)

T1: PE labeled BCMA Fc reagent (AcroBio) (UniProt Q02223 1-54, PE label)
T1 construct: not shown: Fc part of the bought reagent
T1 sequence (looked up): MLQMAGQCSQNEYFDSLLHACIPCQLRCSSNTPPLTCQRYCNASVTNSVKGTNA

B1: scFv-based CAR targeting human BCMA (SEQ ID NO: 101) (other)
chain: DIVLTQSPPSLAMSLGKRATISCRASESVTILGSHLIHWYQQKPGQPPTLLIQLASNVQTGVPARFSGSGSRTDFTLTIDPVEEDDVAVYYCLQSRTIPRTFGGGTKLEIKGSTSGSGKPGSGEGSTKGQIQLVQSGPELKKPGETVKISCKASGYTFTDYSINWVKRAPGKGLKWMGWINTETREPAYAYDFRGRFAFSLETSASTAYLQINNLKYEDTATYFCALDYSYAMDYWGQGTSVTVSSAAATTTPAPRPPTPAPTIASQPLSLRPEACRPAAGGAVHTRGLDFACDIYIWAPLAGTCGVLLLSLVITLYCKRGRKKLLYIFKQPFMRPVQTTQEEDGCSCRFPEEEEGGCELRVKFSRSADAPAYQQGQNQLYNELNLGRREEYDVLDKRRGRDPEMGGKPRRKNPQEGLYNELQKDKMAEAYSEIGMKGERRRGKGHDGLYQGLSTATKDTYDALHMQALPPR
notes: Chimeric antigen receptor on transduced T cells; also called anti-BCMA CAR; BCMA scFv CAR
B2: MAGEA4-reactive, HLA-A2-restricted TCR embedded with an scFv targeting human BCMA and a 2xG4S linker between the scFv and Va; TRB-P2A-BCMA.scFv-2xG4S-TRA (SEQ … (TCR)
TCR beta: DSGVTQTPKHLITATGQRVTLRCSPRSGDLSVYWYQQSLDQGLQFLIQYYNGEERAKGNILERFSAQQFPDLHSELNLSSLELGDSALYFCASSGGDGDEQFFGPGTRLTVLEDLKNVFPPEVAVFEPSKAEIAHTQKATLVCLATGFYPDHVELSWWVNGKEVHSGVSTDPQPLKEQPALNDSRYCLSSRLRVSATFWQNPRNHFRCQVQFYGLSENDEWTQDRAKPVTQIVSAEAWGRADCGITSASYHQGVLSATILYEILLGKATLYAVLVSALVLMAMVKRKDSRG
TCR alpha: DIVLTQSPPSLAMSLGKRATISCRASESVTILGSHLIHWYQQKPGQPPTLLIQLASNVQTGVPARFSGSGSRTDFTLTIDPVEEDDVAVYYCLQSRTIPRTFGGGTKLEIKGSTSGSGKPGSGEGSTKGQIQLVQSGPELKKPGETVKISCKASGYTFTDYSINWVKRAPGKGLKWMGWINTETREPAYAYDFRGRFAFSLETSASTAYLQINNLKYEDTATYFCALDYSYAMDYWGQGTSVTVSSGGGGSGGGGSAQKITQTQPGMFVQEKEAVTLDCTYDTSDPSYGLFWYKQPSSGEMIFLIYQGSYDQQNATEGRYSLNFQKARKSANLVISASQLGDSAMYFCAMSGGYTGGFKTIFGAGTRLFVKANIQNPDPAVYQLRDSKSSDKSVCLFTDFDSQTNVSQSKDSDVYITDKTVLDMRSMDFKSNSAVAWSNKSDFACANAFNNSIIPEDTFFPSSDVPCDVKLVEKSFETDTNLNFQNLLVIVLRILLLKVAGFNLLMTLRLWSS
notes: also called scFv-TCR; BCMA ScFv TCR

Molecular target: T1, PE labeled BCMA Fc reagent (AcroBio)
Experiment: flow cytometry; PE labeled BCMA Fc staining of transduced T cells
Excerpt: T cells were interrogated for cell surface CAR expression using flow cytometry. T cells were stained using a PE labeled BCMA Fc reagent (AcroBio). […] IL2 secretion of scFv-TCR was greater than anti-BCMA CAR in coculture with medium and low BCMA expressing cell lines (FIG. 21C). […] For Live-cell imaging by IncuCyte was used to analyze tumor cell growth of HT1080.BCMA stably transduced with red reporter. The HT1080.BCMA cells grew in the presence of UTD T cells and MAGEA4 TCR-T cells.

Binder | binding result
B1 | binds
B2 | binds
